{
  "source": "paper PMC10973363",
  "about": "“Insights into the modulation of bacterial NADase activity by phage proteins” (Nature Communications, 2024)",
  "binders": {"B1": {"name": "DSR anti-defense 1 (DSAD1), His-tagged (natural protein)", "chain": "MIEIFKDTGATHDLVYHSKINTFVWDVEFDIVLSDSKELNKCYFVKCFNPYRINGKCDFAVSSIDIFSEGKRLLIENEFNFKITKAVHVATSKDVTEIVLHLSERISSPFPIVKEVVYLD", "notes": "phage-encoded DSAD1, WP_004399562; aa 1-9 not built in the cryo-EM model; Cloned into a pET-derived vector with an N-terminal His tag; also called anti-DSR2 protein; His-tagged DSAD1; source: E. coli Rosetta (DE3), purified (Ni-NTA, anion exchange, gel filtration); not shown: His, N-terminal, kept"}},
  "key": {"[1]": {"biological_target": "T1, defense-associated sirtuin 2 (DSR2), full-length wild type (Bacillus subtilis 29R, UniProt P0DXN8 1-1005)", "T1 construct": "DSR2 from Bacillus subtilis 29R, WP_029317421; Cloned into the 2CT-10 vector (Addgene plasmid #55209) with His-MBP tag and TEV site; DSR2-TTP was cloned into a pET-derived vector with an N-terminal His tag; also called WT DSR2; full-length DSR2; source: E. coli Rosetta (DE3), purified (Ni-NTA, TEV cleavage, anion exchange, gel filtration); not shown: His, N-terminal, cleaved; MBP, N-terminal, …", "T1 sequence (looked up)": "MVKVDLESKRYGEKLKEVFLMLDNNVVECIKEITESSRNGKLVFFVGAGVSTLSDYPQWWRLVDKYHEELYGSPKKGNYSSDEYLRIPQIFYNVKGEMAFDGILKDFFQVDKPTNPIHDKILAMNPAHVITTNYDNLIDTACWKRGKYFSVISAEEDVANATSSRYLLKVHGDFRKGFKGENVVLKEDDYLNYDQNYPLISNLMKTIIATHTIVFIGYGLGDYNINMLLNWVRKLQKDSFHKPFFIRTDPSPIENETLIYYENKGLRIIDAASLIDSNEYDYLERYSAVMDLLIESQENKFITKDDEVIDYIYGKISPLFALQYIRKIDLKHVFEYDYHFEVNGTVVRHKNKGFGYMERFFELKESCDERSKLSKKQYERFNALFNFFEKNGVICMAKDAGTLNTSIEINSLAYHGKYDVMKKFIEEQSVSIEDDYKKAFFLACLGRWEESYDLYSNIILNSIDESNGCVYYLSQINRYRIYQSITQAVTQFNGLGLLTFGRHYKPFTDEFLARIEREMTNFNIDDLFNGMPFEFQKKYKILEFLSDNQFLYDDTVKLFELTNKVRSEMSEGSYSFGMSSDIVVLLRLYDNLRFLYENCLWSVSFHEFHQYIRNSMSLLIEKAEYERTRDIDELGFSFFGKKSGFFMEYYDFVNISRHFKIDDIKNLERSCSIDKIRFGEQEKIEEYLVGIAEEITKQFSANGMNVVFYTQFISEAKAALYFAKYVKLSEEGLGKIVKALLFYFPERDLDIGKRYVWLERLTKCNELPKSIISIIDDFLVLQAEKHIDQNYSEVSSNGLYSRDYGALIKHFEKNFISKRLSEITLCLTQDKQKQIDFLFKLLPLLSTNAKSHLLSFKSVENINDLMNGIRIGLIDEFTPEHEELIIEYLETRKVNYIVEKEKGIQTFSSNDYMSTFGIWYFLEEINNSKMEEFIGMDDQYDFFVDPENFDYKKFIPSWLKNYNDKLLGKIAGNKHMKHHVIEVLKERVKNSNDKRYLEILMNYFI", "test": "AUC; sedimentation velocity, samples at 1 mg/mL in gel-filtration buffer (25 mM Tris-HCl pH 7.5, 150 mM NaCl, 2 mM DTT), SEDFIT and SEDPHAT", "details": "both partners purified"}, "DSR2 K960A/D993A": {"biological_target": "T2, DSR2 K960A/D993A (Bacillus subtilis 29R, UniProt P0DXN8 1-1005, K960A | D993A)", "T2 construct": "DSR2 from Bacillus subtilis 29R, WP_029317421, with K960A and D993A; source: E. coli Rosetta (DE3), purified (Ni-NTA, TEV cleavage, anion exchange, gel filtration); not shown: His, N-terminal, cleaved; MBP, N-terminal, cleaved", "T2 sequence (looked up)": "T1 sequence (looked up) with K960A, D993A", "test": "pull-down; N-terminal His-tagged TTP or DSAD1 on Ni-NTA agarose beads, excess untagged DSR2 variants added, 1 h at 4 °C, 25 mM Tris-HCl pH 7.5, 300 mM NaCl, washes with 10 mM imidazole, SDS-PAGE with Coomassie staining", "details": "both partners purified"}},
  "note": "Residue numbers refer to the chain shown, from its start.",
  "data": [
    {"binder": "B1", "values": [
      {"measurement": "binding result", "setting": "[1]", "result": "binds"},
      {"measurement": "binding result", "setting": "DSR2 K960A/D993A", "result": "binds"}
    ]}
  ]
}
